Measurements published in publication PMC8297500.
“And” between values parts separate entries of the source, which are not always exact repeats. Equal entries are not always repeated.

How the values were obtained:
[1] = biological target: Theileria parva schizont antigen Tp2, bacterially expressed recombinant protein with His-tag (Theileria parva (Muguga)); experiment: SEC; preparative SEC (Generon ProteoSEC 3-70 kD) after affinity chromatography; 20 mM PO4, 250 mM NaCl, 0.02% NaN3, pH 7.5; apparent masses from elution times
[2] = biological target: Theileria parva schizont antigen Tp2, bacterially expressed recombinant protein with His-tag (Theileria parva (Muguga)); experiment: SEC-MALS; apparent dimer fraction from preparative SEC; FPLC (Shimadzu) with Wyatt scattering and refractive index detectors

Substance: Theileria parva schizont antigen Tp2, bacterially expressed recombinant protein with His-tag (natural protein)
- stoichiometry N [1]: 4 and 2
- stoichiometry N [2]: 2
